± gives the uncertainty stated by the source.
Assay: abundance fitness (aPCA) (normalised: wild type 0, dead -1); higher = more abundant; growth selection in yeast, the domain comes from the species named
Settings: Homo sapiens
With “SAFB-like transcription modulator P63H, Q9NWH9” the abundance fitness was -0.397 ± 0.049. Work on “SAFB-like transcription modulator V47P, Q9NWH9” yielded an abundance fitness of -0.585 ± 0.056. Substance “SAFB-like transcription modulator I56C, Q9NWH9” has an abundance fitness of -0.18 ± 0.083. Work on “SAFB-like transcription modulator E57K, Q9NWH9” yielded an abundance fitness of -0.159 ± 0.11. Substance “BAG family molecular chaperone regulator 3 A13K, O95817” has an abundance fitness of 0.174 ± 0.17. Substance “BAG family molecular chaperone regulator 3 D31W, O95817” has an abundance fitness of -0.33 ± 0.13. Substance “BAG family molecular chaperone regulator 3 P52H, O95817” has an abundance fitness of -0.542 ± 0.48. In the case of “SAFB-like transcription modulator T46R, Q9NWH9”, the abundance fitness is reported as -0.163 ± 0.064. With “BAG family molecular chaperone regulator 3 S56M, O95817” the abundance fitness was 0.083 ± 0.12. Work on “SAFB-like transcription modulator G19A, Q9NWH9” yielded an abundance fitness of -0.101 ± 0.09. With “BAG family molecular chaperone regulator 3 K29G, O95817” the abundance fitness was -0.531 ± 0.083. “SAFB-like transcription modulator K53R, Q9NWH9” gave an abundance fitness of 0.05 ± 0.059. “SAFB-like transcription modulator L30F, Q9NWH9” gave an abundance fitness of -0.706 ± 0.055. With “SAFB-like transcription modulator P63L, Q9NWH9” the abundance fitness was -0.213 ± 0.038. “BAG family molecular chaperone regulator 3 K29R, O95817” showed an abundance fitness of -0.17 ± 0.066. Substance “BAG family molecular chaperone regulator 3 N16E, O95817” has an abundance fitness of 0.658 ± 0.11. Work on “SAFB-like transcription modulator G19D, Q9NWH9” yielded an abundance fitness of -0.027 ± 0.078. “BAG family molecular chaperone regulator 3 P24V, O95817” gave an abundance fitness of -0.784 ± 0.23. With “BAG family molecular chaperone regulator 3 D20I, O95817” the abundance fitness was -0.558 ± 0.37. Substance “SAFB-like transcription modulator D64K, Q9NWH9” has an abundance fitness of -0.171 ± 0.058. Work on “SAFB-like transcription modulator L34M, Q9NWH9” yielded an abundance fitness of -0.678 ± 0.1. In the case of “BAG family molecular chaperone regulator 3 E57L, O95817”, the abundance fitness is reported as -0.468 ± 0.094. Work on “SAFB-like transcription modulator L68S, Q9NWH9” yielded an abundance fitness of -0.16 ± 0.063. For “BAG family molecular chaperone regulator 3 H42C, O95817”, the abundance fitness was -0.457 ± 0.33. With “SAFB-like transcription modulator K35W, Q9NWH9” the abundance fitness was -0.163 ± 0.077. Work on “SAFB-like transcription modulator N65S, Q9NWH9” yielded an abundance fitness of -0.162 ± 0.04. For “SAFB-like transcription modulator R37A, Q9NWH9”, the abundance fitness was -1.09 ± 0.091. For “SAFB-like transcription modulator L25G, Q9NWH9”, the abundance fitness was -0.715 ± 0.071. “BAG family molecular chaperone regulator 3 G17H, O95817” gave an abundance fitness of 1.03 ± 0.1. Work on “BAG family molecular chaperone regulator 3 S14N, O95817” yielded an abundance fitness of -0.156 ± 0.17. “BAG family molecular chaperone regulator 3 D18M, O95817” gave an abundance fitness of -0.406 ± 0.26. In the case of “BAG family molecular chaperone regulator 3 A13Q, O95817”, the abundance fitness is reported as -0.167 ± 0.086. Substance “SAFB-like transcription modulator L52S, Q9NWH9” has an abundance fitness of -0.563 ± 0.087. With “SAFB-like transcription modulator G61I, Q9NWH9” the abundance fitness was -0.415 ± 0.098. With “BAG family molecular chaperone regulator 3 H42E, O95817” the abundance fitness was -0.738 ± 0.33. Work on “SAFB-like transcription modulator E67K, Q9NWH9” yielded an abundance fitness of -0.225 ± 0.082. Work on “SAFB-like transcription modulator D40Q, Q9NWH9” yielded an abundance fitness of -0.486 ± 0.12. “BAG family molecular chaperone regulator 3 L22T, O95817” gave an abundance fitness of 0.047 ± 0.17. “BAG family molecular chaperone regulator 3 V12I, O95817” showed an abundance fitness of 0.446 ± 0.11. “BAG family molecular chaperone regulator 3 W26V, O95817” showed an abundance fitness of -0.467 ± 0.2. “SAFB-like transcription modulator N38S, Q9NWH9” gave an abundance fitness of -0.105 ± 0.048. “SAFB-like transcription modulator E59V, Q9NWH9” showed an abundance fitness of -0.459 ± 0.052. For “SAFB-like transcription modulator S32W, Q9NWH9”, the abundance fitness was -0.108 ± 0.049. For “BAG family molecular chaperone regulator 3 D31G, O95817”, the abundance fitness was -0.491 ± 0.084. “SAFB-like transcription modulator D64W, Q9NWH9” showed an abundance fitness of -0.068 ± 0.046. In the case of “BAG family molecular chaperone regulator 3 G17R, O95817”, the abundance fitness is reported as 0.791 ± 0.06. “SAFB-like transcription modulator I66T, Q9NWH9” showed an abundance fitness of -0.063 ± 0.12. “BAG family molecular chaperone regulator 3 T47H, O95817” showed an abundance fitness of -0.736 ± 0.3. Work on “SAFB-like transcription modulator G60E, Q9NWH9” yielded an abundance fitness of -0.347 ± 0.05. “SAFB-like transcription modulator R51L, Q9NWH9” gave an abundance fitness of -0.753 ± 0.068. With “SAFB-like transcription modulator D64G, Q9NWH9” the abundance fitness was -0.09 ± 0.041. “SAFB-like transcription modulator I66V, Q9NWH9” gave an abundance fitness of -0.036 ± 0.084. Work on “BAG family molecular chaperone regulator 3 G35L, O95817” yielded an abundance fitness of -0.184 ± 0.14. Substance “SAFB-like transcription modulator K45L, Q9NWH9” has an abundance fitness of -0.731 ± 0.056. For “SAFB-like transcription modulator G61P, Q9NWH9”, the abundance fitness was -0.31 ± 0.062. In the case of “BAG family molecular chaperone regulator 3 V40S, O95817”, the abundance fitness is reported as -0.745 ± 0.21. “BAG family molecular chaperone regulator 3 P24F, O95817” gave an abundance fitness of -0.383 ± 0.31. For “SAFB-like transcription modulator D62H, Q9NWH9”, the abundance fitness was -0.253 ± 0.077. In the case of “BAG family molecular chaperone regulator 3 D20A, O95817”, the abundance fitness is reported as -0.557 ± 0.15. Substance “BAG family molecular chaperone regulator 3 P37N, O95817” has an abundance fitness of 0.448 ± 0.2. Work on “SAFB-like transcription modulator G61Q, Q9NWH9” yielded an abundance fitness of -0.141 ± 0.066. “BAG family molecular chaperone regulator 3 G25D, O95817” gave an abundance fitness of -0.548 ± 0.23. Work on “SAFB-like transcription modulator V44K, Q9NWH9” yielded an abundance fitness of -0.233 ± 0.088. Work on “SAFB-like transcription modulator S50H, Q9NWH9” yielded an abundance fitness of -0.353 ± 0.47. Substance “SAFB-like transcription modulator I56M, Q9NWH9” has an abundance fitness of -0.217 ± 0.05. Substance “SAFB-like transcription modulator V27Q, Q9NWH9” has an abundance fitness of -0.426 ± 0.15. In the case of “BAG family molecular chaperone regulator 3 G15P, O95817”, the abundance fitness is reported as 0.603 ± 0.15. Substance “SAFB-like transcription modulator R26K, Q9NWH9” has an abundance fitness of -0.389 ± 0.14. Work on “SAFB-like transcription modulator S50A, Q9NWH9” yielded an abundance fitness of 0.015 ± 0.037. “BAG family molecular chaperone regulator 3 P52R, O95817” showed an abundance fitness of -0.633 ± 0.12. Work on “BAG family molecular chaperone regulator 3 G58W, O95817” yielded an abundance fitness of -0.682 ± 0.29. Work on “BAG family molecular chaperone regulator 3 V54P, O95817” yielded an abundance fitness of -0.832 ± 0.42. With “SAFB-like transcription modulator T42N, Q9NWH9” the abundance fitness was -0.442 ± 0.16. Work on “BAG family molecular chaperone regulator 3 E27W, O95817” yielded an abundance fitness of -0.988 ± 0.48. “SAFB-like transcription modulator I66S, Q9NWH9” gave an abundance fitness of -0.259 ± 0.083. “BAG family molecular chaperone regulator 3 G25R, O95817” showed an abundance fitness of -0.432 ± 0.14. “SAFB-like transcription modulator L52W, Q9NWH9” gave an abundance fitness of -1.15 ± 0.14. “SAFB-like transcription modulator T23S, Q9NWH9” showed an abundance fitness of -0.021 ± 0.032. “SAFB-like transcription modulator V44Y, Q9NWH9” gave an abundance fitness of -0.258 ± 0.081. For “BAG family molecular chaperone regulator 3 V54R, O95817”, the abundance fitness was -0.083 ± 0.081. For “SAFB-like transcription modulator T46D, Q9NWH9”, the abundance fitness was -0.235 ± 0.088. With “BAG family molecular chaperone regulator 3 S44E, O95817” the abundance fitness was -0.489 ± 0.17. Substance “SAFB-like transcription modulator I41K, Q9NWH9” has an abundance fitness of -0.336 ± 0.11. For “SAFB-like transcription modulator N38K, Q9NWH9”, the abundance fitness was -0.092 ± 0.047. Substance “BAG family molecular chaperone regulator 3 D51L, O95817” has an abundance fitness of -0.859 ± 0.2. For “SAFB-like transcription modulator E67D, Q9NWH9”, the abundance fitness was -0.107 ± 0.086. “SAFB-like transcription modulator L48W, Q9NWH9” showed an abundance fitness of -0.613 ± 0.04. For “BAG family molecular chaperone regulator 3 N16I, O95817”, the abundance fitness was 0.113 ± 0.19. Substance “SAFB-like transcription modulator I56E, Q9NWH9” has an abundance fitness of -0.597 ± 0.089. Work on “SAFB-like transcription modulator D29T, Q9NWH9” yielded an abundance fitness of -0.509 ± 0.12. Substance “BAG family molecular chaperone regulator 3 G35Y, O95817” has an abundance fitness of -0.304 ± 0.24. “SAFB-like transcription modulator L25M, Q9NWH9” gave an abundance fitness of -0.768 ± 0.045. Substance “BAG family molecular chaperone regulator 3 P24R, O95817” has an abundance fitness of -0.037 ± 0.085. Work on “SAFB-like transcription modulator D24R, Q9NWH9” yielded an abundance fitness of -0.335 ± 0.033. “BAG family molecular chaperone regulator 3 K29I, O95817” showed an abundance fitness of -0.758 ± 0.38. In the case of “BAG family molecular chaperone regulator 3 T47G, O95817”, the abundance fitness is reported as -0.796 ± 0.14. “SAFB-like transcription modulator G61D, Q9NWH9” showed an abundance fitness of -0.229 ± 0.056. “SAFB-like transcription modulator I49H, Q9NWH9” showed an abundance fitness of -0.29 ± 0.1.
